Reference: patent US7919104B2, “Functional epitopes of Streptococcus pneumoniae PsaA antigen and uses thereof” (priority 2005, dated 2011)
Entries after “also recorded” stand apart in the source; their conditions may differ.

What was measured:
P4 beads [1] = target: T1, P4 beads (Streptococcus pneumoniae serotype 4, UniProt P0A4G2); experiment: Mouse immunization: serum % IA of P4 beads (anti P4 activity); format: in vivo
T1 sequence (P0A4G2 251-278 D258K/D259R): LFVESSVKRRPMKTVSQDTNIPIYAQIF
Method: (§1) Serum inhibition of adherence assays were performed as previously described for the inhibition of pneumococcal adherence (Romero-Steiner). Two buffer solutions were found suitable for this type of assay: solution 1 (EMEM medium—Hanks buffered saline with Ca++ and Mg++ supplemented with 0.2% BSA) as previously reported (Romero-Steiner) or solution 2 (PBS 10 mM, pH7.2-7.4 supplemented with 1% BSA and 0.5% BSA for washes) as described below. Use of one buffer solution in preference to the other depended on availability of BSA (Sigma cat #A2153). Alternative preparations of BSA were evaluated but were not found suitable for this assay due to toxicity to the cell monolayer. Briefly, confluent monolayers of Detroit 562 cells were washed once with 130 μl/well of PBS buffer+0.5% BSA. A 45 μl volume of PBS buffer+1% BSA was added to each well and the plate was incubated while preparing serum dilutions in a replicate plate (U-bottom Costar). Serum dilutions in the replica plate could be performed in a 2-fold or 3-fold dilution scheme. For the 2-fold dilution scheme, a 10 μl volume of test or control serum was added to the first row of wells (B2-B11) already containing 70 μl of PBS+1% BSA. A 40 μl volume of PBS+1% BSA was added to the remainder of the wells including the outer perimeter. The sera from row B was serially diluted into rows C-F with a multichannel pipetor set at 40 μl (2-fold). The last 401 was discarded into the waste. Serum was not added to the adherence control wells (row G or column 11). A 20 μl volume of the optimal fluosphere dilution (usually 1:100 or 1:150, containing ˜3,100 fluospheres) was added to each well, including serum-free controls. The fluosphere suspension was sonicated for 3 minutes prior to addition to the center of the wells to generate a single fluosphere suspension. The microtiter plate was mixed by tapping the sides gently and incubated for 15 minutes at 37° C., 5% CO2. At the end of the incubation period, 55 μl/well was replica plated into the microtiter plate containing the washed monolayers containing 45 μl of PBS+1% BSA. The final well volume was always adjusted to 100-μl volume regardless of the serum dilution scheme used (2-fold or 3-fold) to control the reproducibility of fluosphere adherence The plate was mixed by tapping the sides gently and incubated for 2 hours at 37° C., 5% CO2. Following incubation, plates were washed 5 times with 130 μl/well of PBS+0.5% BSA. The plates were allowed to dry before reading in a fluorometer (BioTek, FLX 800) at 485 nm for excitation and emission at 520 nm. The percent inhibition of adherence (IA) was calculated as compared to adherence controls. The following formula was used: % IA=100-(test well FU×100)/controls mean FU.

P4 beads [2] = target: T2, P4 beads (Streptococcus pneumoniae serotype 4, UniProt P0A4G2, D258K/D259R); experiment: as above; format: in vivo; details: sera 1:32 dilution
T2 sequence (P0A4G2 251-278 D258K/D259R): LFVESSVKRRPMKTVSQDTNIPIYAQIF
Method: as §1

[3] = tested on: HL-60, RAW 264.7 and Detroit 562 cells; experiment: P4 activation of phagocytes and epithelial cells (cytokine release, TEM); format: cell-based
Method: Cell suspensions of HL-60 (promyelocytes) and RAW 264.7 (monocytes), and Detroit 562 cells (nasopharyngeal epithelial cells) were centrifuged at 1000 rpm-10 min and the pellet was resuspended in 1 ml PBS buffer. To this, P4 solution (1 mg/ml) was added at 10% (v/v) concentration, mixed by inverting few times and incubated at 37° C., 5% CO2 for 15 min (HL-60 and RAW) or 30 min (Detroit 562). After incubation, the cells were centrifuged again and the supernatant was analyzed for cytokines and the cell pellet was washed once in PBS, fixed in 2% glutaraldehyde and processed for transmission electron microscopic (TEM) analysis.

[4] = tested on: LEC-5 and NEO fibroblast cell lines; experiment: Growth of fibroblasts with P4 treated cell supernatant; format: cell-based; details: supernatant of P4 treated cells with higher FGFbasic, different concentrations
Method: 2 fibroblast cell lines, LEC-5 and NEO, were used. These cells were grown in a 96 well titer plates until they become confluent (˜6 days). To this, the P4 treated cell supernatant that had higher concentration of FGFbasic was added at different concentrations and the growth was monitored fluormetrically with the help of a fluorometric metabolic indicator.

Detroit 562 cells = experiment: Competitive inhibition of adherence of rPsaA-coated fluospheres to Detroit 562 cells; format: cell-based, human; details: competitor 100 μg (so in the source)
PsaA beads = target: T3, PsaA beads (Streptococcus pneumoniae serotype 4, UniProt P0A4G2); experiment: Mouse immunization: serum % IA of PsaA beads (anti PsaA activity); format: in vivo
T3 construct: Both, rPsaA (MW 34,079 daltons) and the synthetic peptides were non-lipidated; purchased Aventis-Pasteur, Toronto, Ontario, Canada (donated)
T3 sequence (P0A4G2 20-309): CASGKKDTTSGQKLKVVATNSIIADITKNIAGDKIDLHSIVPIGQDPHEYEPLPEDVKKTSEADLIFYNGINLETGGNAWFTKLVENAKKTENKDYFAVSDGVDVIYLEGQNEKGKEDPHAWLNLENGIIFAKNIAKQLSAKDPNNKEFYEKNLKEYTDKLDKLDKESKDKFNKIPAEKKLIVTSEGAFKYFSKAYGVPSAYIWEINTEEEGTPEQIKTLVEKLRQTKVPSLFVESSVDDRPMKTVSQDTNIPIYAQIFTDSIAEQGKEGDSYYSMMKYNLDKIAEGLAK
Method: as §1

[5] = mice serum dilution factor 8, 7th day
[6] = mice serum dilution factor 8, 11th day
[7] = mice serum dilution factor 16, 7th day
[8] = mice serum dilution factor 16, 11th day
[9] = mice serum dilution factor 32, 7th day
[10] = mice serum dilution factor 32, 11th day
[11] = mice serum dilution factor 64, 7th day
[12] = mice serum dilution factor 64, 11th day
[13] = mice serum dilution factor 128, 7th day
[14] = mice serum dilution factor 128, 11th day
[15] = mice serum dilution factor 256, 7th day
[16] = mice serum dilution factor 256, 11th day
[17] = mice serum dilution factor 512, 7th day
[18] = mice serum dilution factor 512, 11th day
[19] = mice serum dilution factor 1024, 7th day
[20] = mice serum dilution factor 1024, 11th day
[21] = mice serum dilution factor 2048, 7th day
[22] = mice serum dilution factor 2048, 11th day
[23] = mice serum dilution factor 4096, 7th day
[24] = mice serum dilution factor 4096, 11th day
[25] = P4 solution (1 mg/ml) at 10% (v/v), 15 or 30 min

LFVESSVKRRPMKTVSQDTNIPIYAQIF [P4, non-branched synthetic peptide, PsaA amino acid residues 251 to 278 with DD changed to KR]
Anti P4 activity (% IA of P4 beads) (P4 beads [1]; [5]): 81%
Anti P4 activity (% IA of P4 beads) (P4 beads [1]; [6]): 95%
Anti P4 activity (% IA of P4 beads) (P4 beads [1]; [7]): 40%
Anti P4 activity (% IA of P4 beads) (P4 beads [1]; [8]): 44%
Anti P4 activity (% IA of P4 beads) (P4 beads [1]; [9]): 31%
Anti P4 activity (% IA of P4 beads) (P4 beads [1]; [10]): 45%
Anti P4 activity (% IA of P4 beads) (P4 beads [1]; [11]): 0%
Anti P4 activity (% IA of P4 beads) (P4 beads [1]; [12]): 4%
Anti P4 activity (% IA of P4 beads) (P4 beads [1]; [13]): 0%
Anti P4 activity (% IA of P4 beads) (P4 beads [1]; [14]): 0%
Anti P4 activity (% IA of P4 beads) (P4 beads [1]; [15]): 0%
Anti P4 activity (% IA of P4 beads) (P4 beads [1]; [16]): 0%
Anti P4 activity (% IA of P4 beads) (P4 beads [1]; [17]): 0%
Anti P4 activity (% IA of P4 beads) (P4 beads [1]; [18]): 0%
Anti P4 activity (% IA of P4 beads) (P4 beads [1]; [19]): 0%
Anti P4 activity (% IA of P4 beads) (P4 beads [1]; [20]): 0%
Anti P4 activity (% IA of P4 beads) (P4 beads [1]; [21]): 0%
Anti P4 activity (% IA of P4 beads) (P4 beads [1]; [22]): 0%
Anti P4 activity (% IA of P4 beads) (P4 beads [1]; [23]): 0%
Anti P4 activity (% IA of P4 beads) (P4 beads [1]; [24]): 0%
inhibition of adherence detected in sera from immunized mice (P4 beads [2]): Up to 45%
bacterial adherence to P4 treated NP cells ([3]; Detroit 562 NP cells exposed to P4 solution): enhancement in bacterial adherence
EGF release/production [3, 25]: brings down EGF production; also recorded: down regulated
FGFbasic release/production [3, 25]: up regulated
IL8 release/production [3, 25]: down regulated
cell morphology by TEM and light photomicrographs [3, 25]: phagocytic activation
growth of fibroblasts (fluorometric metabolic indicator) [4]: enhancement in the growth
reduction in FU of PsaA-coated beads (Detroit 562 cells): 68%

B1: rPsaA: purified recombinant pneumococcal surface adhesin A, non-lipidated, donated by Aventis-Pasteur (protein)
chain: CASGKKDTTSGQKLKVVATNSIIADITKNIAGDKIDLHSIVPIGQDPHEYEPLPEDVKKTSEADLIFYNGINLETGGNAWFTKLVENAKKTENKDYFAVSDGVDVIYLEGQNEKGKEDPHAWLNLENGIIFAKNIAKQLSAKDPNNKEFYEKNLKEYTDKLDKLDKESKDKFNKIPAEKKLIVTSEGAFKYFSKAYGVPSAYIWEINTEEEGTPEQIKTLVEKLRQTKVPSLFVESSVDDRPMKTVSQDTNIPIYAQIFTDSIAEQGKEGDSYYSMMKYNLDKIAEGLAK
Anti PsaA activity (% IA of PsaA beads) (PsaA beads; [5]): 84%
Anti PsaA activity (% IA of PsaA beads) (PsaA beads; [6]): 79%
Anti PsaA activity (% IA of PsaA beads) (PsaA beads; [7]): 47%
Anti PsaA activity (% IA of PsaA beads) (PsaA beads; [8]): 37%
Anti PsaA activity (% IA of PsaA beads) (PsaA beads; [9]): 42%
Anti PsaA activity (% IA of PsaA beads) (PsaA beads; [10]): 34%
Anti PsaA activity (% IA of PsaA beads) (PsaA beads; [11]): 0%
Anti PsaA activity (% IA of PsaA beads) (PsaA beads; [12]): 11%
Anti PsaA activity (% IA of PsaA beads) (PsaA beads; [13]): 0%
Anti PsaA activity (% IA of PsaA beads) (PsaA beads; [14]): 1%
Anti PsaA activity (% IA of PsaA beads) (PsaA beads; [15]): 0%
Anti PsaA activity (% IA of PsaA beads) (PsaA beads; [16]): 0%
Anti PsaA activity (% IA of PsaA beads) (PsaA beads; [17]): 0%
Anti PsaA activity (% IA of PsaA beads) (PsaA beads; [18]): 0%
Anti PsaA activity (% IA of PsaA beads) (PsaA beads; [19]): 0%
Anti PsaA activity (% IA of PsaA beads) (PsaA beads; [20]): 0%
Anti PsaA activity (% IA of PsaA beads) (PsaA beads; [21]): 0%
Anti PsaA activity (% IA of PsaA beads) (PsaA beads; [22]): 4%
Anti PsaA activity (% IA of PsaA beads) (PsaA beads; [23]): 0%
Anti PsaA activity (% IA of PsaA beads) (PsaA beads; [24]): 18%
